# Assay results published in US11213590B2, “SSTR-targeted conjugates and particles and formulations thereof” (priority 2016, dated 2022).
# Values joined by “and” are separate entries in the source; they are usually repeats but may differ in a detail not shown here. Equal entries are not always repeated. Where two headings read alike, the source gives them in different places.
# Tests used:
# [1] = Conversion of impurities back into Conjugate 57 in acetate buffer; format: physicochemical
# Method: Two impurities present in Conjugate 57 with RRT at 1.69 and 1.70, referred to herein as Impurity A and B respectively, were identified as Conjugate 57 adducts. […] The rate of conversion of these two compounds back into Conjugate 57 is dependent on temperature. Data are provided in Table 11A and Table 11B showing this conversion at room temperature and 40° C.
# SSTR2 = SSTR2 (Homo sapiens, UniProt P30874); assay: SSTR2 receptor internalization in H524-MD tumor xenograft (IHC staining); format: in vivo; parameters: highly expressing SSTR2 positive (SSTR2+) tumor xenograft; endogenous in cells
# Chain of SSTR2 (P30874 whole entry): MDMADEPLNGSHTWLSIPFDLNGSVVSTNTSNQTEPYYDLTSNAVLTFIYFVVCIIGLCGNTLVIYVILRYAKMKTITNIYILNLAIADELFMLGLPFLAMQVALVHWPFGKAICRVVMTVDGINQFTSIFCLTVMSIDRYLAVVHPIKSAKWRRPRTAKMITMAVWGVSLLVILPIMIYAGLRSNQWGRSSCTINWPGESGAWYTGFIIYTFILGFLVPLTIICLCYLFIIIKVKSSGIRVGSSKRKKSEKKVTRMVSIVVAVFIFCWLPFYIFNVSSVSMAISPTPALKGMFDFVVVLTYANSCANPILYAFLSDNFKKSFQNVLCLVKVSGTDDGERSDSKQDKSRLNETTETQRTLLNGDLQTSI
# Method: SSTR2 receptor internalization was studied using Conjugate 57 in a highly expressing SSTR2 positive (SSTR2+) tumor xenograft: H524_MD tumor xenograft. Vehicle (0.1% Solutol/5% Mannitol), Conjugate 57 at 2 mg/kg, scrambled control (BT-984) at 2 mg/kg, and Octreotide at 1.4 mg/kg (ligand alone) were given to SSTR2+ H524-MD tumor xenografts (n=3/group). Timepoints—0 hr (Vehicle), 15 mins, 1 hr, 4 hr, 24 hr and 72 hrs. SSTR2 scoring was done by immunohistochemistry (IHC) staining.
# NCI-H82 = assay: cells; format: cell-based, human; details: for IC50: assay duration 72 h
# Method: (§1) The purpose of this study was to determine the receptor-dependent inhibition of proliferation in vitro by the somatostatin targeting conjugate Conjugate 57 and determine the sensitivity to DM1 in the human SSTR2 expressing cancer cell lines: NCI-H69, NCI-H82, NCI-H727 and HCC-33. Cells were incubated with Conjugate 57 for 6 hours, in the presence or absence of an excess of octreotide, a somatostatin analogue. A three-fold serial dilution of Conjugate 57 was used for a total of ten concentration points. After treatment, cells were washed, incubated for an additional period of time, either 72 or 96 hours and proliferation was measured using the CellTiter-Glo® Luminescent Cell Viability Assay. The IC50 of Conjugate 57 was used to determine the inhibiting activity in proliferation assays. To determine DM1 sensitivity a similar method to the Conjugate 57 assay was employed with the additional incubation time points of 30 minutes, 1, 2, and 4 hours and the exclusion of the pre-treatment with octreotide. DM1 effect from the most to least sensitive cell line was determined to be: NCI-H69>HCC-33>NCI-H82>NCI-H727 (Table 5B). […] The addition of excess octreotide (100 μM) competes with Conjugate 57 for binding to the SSTR2 receptor. […] In the NCI-H69 experiments, pre-incubation with an excess of octreotide modestly diminished the activity of Conjugate 57 by 1.6 and 2.4 fold, depending on the assay conditions. In the HCC-33 cell line, activity of Conjugate 57 was 3.2 (±1.4) times higher when dosed alone, compared to when the cells were pre-incubated with octreotide. The small but measureable changes in Conjugate 57 activity in the presence of excess octreotide seen in the NCI-H69 and HCC-33 cell lines supports the receptor dependence of the Conjugate 57 antiproliferative effect seen in vitro. In summary, although all the cell lines tested in these experiments express the SSTR2 protein, they have different levels of sensitivity to the Conjugate 57 conjugate of which the DM1 sensitivity may be a contributing factor.
# NCI-H69 = assay: cells; format: cell-based, human; details: for IC50: 5,000 cells/well
# Method: as §1
# NCI-H727 = assay: cells; format: cell-based, human; details: for IC50: assay duration 72 h
# Method: as §1
# [2] = In vivo cardiovascular and respiratory evaluation; parameters: species or system beagle dog
# Method: This study was conducted to evaluate the potential cardiovascular and respiratory effects of Conjugate 57 in conscious freely moving naïve male beagle dogs.
# Assessments of cardiovascular and respiratory effects and general toxicity were based on mortality, clinical observations, body weight, body temperature, cardiovascular evaluations, i.e., blood pressure (systolic, diastolic, and mean arterial pressures), heart rate, the ECG (QRS duration and the RR, PR, QT, and Corrected QT [QTc] intervals), and respiratory evaluations (respiratory rate, tidal volume, and minute volume). The animals were monitored continuously for at least 2 hours prior to dosing and for 24 hours post dose.
# [3] = 5,000 cells/well, excess octreotide (100 μM), read-out: Inhibition of Proliferation IC50 With Octreotide
# [4] = 5,000 cells/well, read-out: Inhibition of Proliferation IC50 Without Octreotide
# [5] = 10,000 cells/well, excess octreotide (100 μM), read-out: Inhibition of Proliferation IC50 With Octreotide
# [6] = 10,000 cells/well, read-out: Inhibition of Proliferation IC50 Without Octreotide
# [7] = 0.16 mg/kg iv, segment 1 (>0 to 0.25 hours post dose)
# [8] = 0.16 mg/kg iv, segment 2 (>0.25 to 6 hours post dose)
# [9] = 0.16 mg/kg iv, segment 3 (>6 to 24 hours post dose)
# [10] = 0.20 mg/kg iv, segment 1 (>0 to 0.25 hours post dose)
# [11] = 0.20 mg/kg iv, segment 2 (>0.25 to 6 hours post dose)
# [12] = 0.20 mg/kg iv, segment 3 (>6 to 24 hours post dose)
# [13] = 0.24 mg/kg iv, segment 1 (>0 to 0.25 hours post dose)
# [14] = 0.24 mg/kg iv, segment 2 (>0.25 to 6 hours post dose)
# [15] = 0.24 mg/kg iv, segment 3 (>6 to 24 hours post dose)
smiles,measurement,setting,value
COc1cc2cc(c1Cl)N(C)C(=O)C[C@H](OC(=O)[C@H](C)N(C)C(=O)CCSSC[C@H](NC(=O)[C@@H]1CSSC[C@H](NC(=O)[C@H](N)Cc3ccccc3)C(=O)N[C@@H](Cc3ccc(O)cc3)C(=O)N[C@H](Cc3c[nH]c4ccccc34)C(=O)N[C@@H](CCCCN)C(=O)N[C@@H]([C@@H](C)O)C(=O)N1)C(N)=O)[C@]1(C)O[C@H]1[C@H](C)[C@@H]1C[C@@](O)(NC(=O)O1)[C@H](OC)/C=C/C=C(\C)C2 [Conjugate 57],Total (sum of Conjugate 57 and impurities A and B),"[1]; 40° C., 0 hr",98.6%
same,content during conversion of impurities,"[1]; 40° C., 0 hr",94.6%
same,Total (sum of Conjugate 57 and impurities A and B),"[1]; 40° C., 1.4 hr",98.7%
same,content during conversion of impurities,"[1]; 40° C., 1.4 hr",97.9%
same,Total (sum of Conjugate 57 and impurities A and B),"[1]; 40° C., 8.4 hr",98.8%
same,content during conversion of impurities,"[1]; 40° C., 8.4 hr",98.5%
same,Total (sum of Conjugate 57 and impurities A and B),"[1]; room temperature, 0 hr",98.6%
same,content during conversion of impurities,"[1]; room temperature, 0 hr",94.6%
same,Total (sum of Conjugate 57 and impurities A and B),"[1]; room temperature, 9.0 hr",98.7%
same,content during conversion of impurities,"[1]; room temperature, 9.0 hr",97.8%
same,Total (sum of Conjugate 57 and impurities A and B),"[1]; room temperature, 11.6 hr",98.8%
same,content during conversion of impurities,"[1]; room temperature, 11.6 hr",98.1%
same,Total (sum of Conjugate 57 and impurities A and B),"[1]; room temperature, 14.8 hr",98.8%
same,content during conversion of impurities,"[1]; room temperature, 14.8 hr",98.3%
same,Total (sum of Conjugate 57 and impurities A and B),"[1]; room temperature, 16.7 hr",98.8%
same,content during conversion of impurities,"[1]; room temperature, 16.7 hr",98.3%
same,SSTR2 receptor internalization/distribution in vivo,"SSTR2; 2 mg/kg, H524-MD tumor xenograft",significant receptor internalization/distribution
same,"SSTR2 receptor internalization, intensity of staining analysis","SSTR2; 2 mg/kg, versus BT-984 and naïve at 1 hr, 4 hr and 72 hours",significantly different results
same,"SSTR2 internalization, distribution of staining analysis","SSTR2; 2 mg/kg, versus BT-984 and naïve at 4 hr, 24 hr and 72 hours",significantly different results
same,SSTR2 internalization compared with octreotide alone,"SSTR2; Conjugate 57 2 mg/kg, octreotide 1.4 mg/kg",more SSTR2 internalization than octreotide alone
same,IC50,NCI-H82; [3],128 nM
same,IC50,NCI-H82; [4],106 nM
same,IC50,NCI-H82; [5],1290 nM
same,IC50,NCI-H82; [6],1050 nM
same,activity in the presence of excess octreotide,NCI-H82; octreotide 100 μM,not decreased
same,IC50,"NCI-H69; assay duration 72 h, 6 h treatment, read-out: Inhibition of Proliferation IC50 Without Octreotide",108 nM
same,IC50,"NCI-H69; assay duration 72 h, excess octreotide (100 μM), read-out: Inhibition of Proliferation IC50 With Octreotide",258 nM
same,IC50,"NCI-H69; assay duration 96 h, 6 h treatment, read-out: Inhibition of Proliferation IC50 Without Octreotide",167 nM
same,IC50,"NCI-H69; assay duration 96 h, excess octreotide (100 μM), read-out: Inhibition of Proliferation IC50 With Octreotide",271 nM
same,decrease of activity by pre-incubation with excess octreotide,NCI-H69; depending on the assay conditions,1.6 fold and 2.4 fold
same,IC50,NCI-H727; [3],810 nM
same,IC50,NCI-H727; [4],3240 nM
same,IC50,NCI-H727; [5],1900 nM
same,IC50,NCI-H727; [6],2690 nM
same,activity in the presence of excess octreotide,NCI-H727; octreotide 100 μM,not decreased
same,"Diastolic Blood Pressure, overall segment mean",[2]; [7],100.8 ± 4.1
same,"Mean Arterial Blood Pressure, overall segment mean",[2]; [7],124.0 ± 4.8
same,"Systolic Blood Pressure, overall segment mean",[2]; [7],162.8 ± 5.7
same,"Diastolic Blood Pressure, overall segment mean",[2]; [8],102.7 ± 1.5
same,"Mean Arterial Blood Pressure, overall segment mean",[2]; [8],128.6 ± 2.0
same,"Systolic Blood Pressure, overall segment mean",[2]; [8],172.2 ± 2.9
same,"Diastolic Blood Pressure, overall segment mean",[2]; [9],99.6 ± 1.9
same,"Mean Arterial Blood Pressure, overall segment mean",[2]; [9],125.7 ± 2.2
same,"Systolic Blood Pressure, overall segment mean",[2]; [9],169.2 ± 3.1
same,"Diastolic Blood Pressure, overall segment mean",[2]; [10],99.8 ± 4.2
same,"Mean Arterial Blood Pressure, overall segment mean",[2]; [10],122.7 ± 4.9
same,"Systolic Blood Pressure, overall segment mean",[2]; [10],161.1 ± 5.9
same,"Diastolic Blood Pressure, overall segment mean",[2]; [11],97.7 ± 1.5
same,"Mean Arterial Blood Pressure, overall segment mean",[2]; [11],122.6 ± 2.1
same,"Systolic Blood Pressure, overall segment mean",[2]; [11],165.7 ± 3.0
same,"Diastolic Blood Pressure, overall segment mean",[2]; [12],93.8 ± 1.9
same,"Mean Arterial Blood Pressure, overall segment mean",[2]; [12],119.4 ± 2.2
same,"Systolic Blood Pressure, overall segment mean",[2]; [12],163.4 ± 3.2
same,"Diastolic Blood Pressure, overall segment mean",[2]; [13],112.0 ± 4.1
same,"Mean Arterial Blood Pressure, overall segment mean",[2]; [13],138.7 ± 4.8
same,"Systolic Blood Pressure, overall segment mean",[2]; [13],182.0 ± 5.7
same,"Diastolic Blood Pressure, overall segment mean",[2]; [14],104.1 ± 1.5
same,"Mean Arterial Blood Pressure, overall segment mean",[2]; [14],129.8 ± 2.0
same,"Systolic Blood Pressure, overall segment mean",[2]; [14],176.3 ± 2.9
same,"Diastolic Blood Pressure, overall segment mean",[2]; [15],97.1 ± 1.9
same,"Mean Arterial Blood Pressure, overall segment mean",[2]; [15],123.5 ± 2.2
same,"Systolic Blood Pressure, overall segment mean",[2]; [15],171.1 ± 3.1
same,"blood pressure, heart rate and respiratory rate","[2]; 0.24 mg/kg, from dosing through 1.5 to 2 hours following dosing",statistically significant increases
same,"effects on QRS duration, ECG morphology, or tidal volume",[2]; any dose level tested,no test article-related effects
same,adverse effects on cardiovascular or respiratory function,"[2]; iv, male beagle dogs, doses up to and including 0.24 mg/kg",no adverse effects
same,"tolerability, clinical observations, mortality","[2]; single iv infusion over 6 minutes, 0.16, 0.20 and 0.24 mg/kg, male beagle dogs",generally well tolerated
